The target in experiment [1] is T1, human EGFR with E746-A750 deletion (human, UniProt P00533 25-1210).
T1 construct: Endogenous mutant EGFR of HCC827 and H1650 cells and of NSCLC tumor samples; also called EGFR (E746-A750del); dEGFR
Kind of experiment: IHC on paraffin-embedded xenografts and cell pellets. The protocol: To test the specificity of binding of the rabbit monoclonal antibodies described in Example 1, xenografts were prepared of human cancer cells in nude mice.
For […] analysis, all analyses were performed on formalin-fixed, paraffin-embedded blocks. Serial 4-um-thick tissue sections were cut from TMAs for immunohistochemistry study. The slides were baked at 55° C. overnight, then deparaffinized in xylene and rehydrated through a graded series of ethanol concentrations. Antigen retrieval (microwave boiling for 10 minutes in 1 mM EDTA) was performed. Intrinsic peroxidase activity was blocked by 3% hydrogen peroxide for 10 min. 5% goat serum (Sigma) solution was used for blocking nonspecific antibody binding, and the optimally diluted primary antibodies were applied to cover the specimen. Slides were incubated at 4° C. overnight. After three washes in TBS-T for 5 minutes each, slides were incubated for 30 min with labeled polymer-HRP anti-rabbit secondary antibody at room temperature. Following three additional washes in TBS-T, slides were visualized using substrate-chromagen (Envision™+kit, commercially available from Dako). Sections were scanned at low magnification. Intensity of the staining as well as percentage of positive cells was recorded. Stain intensity was scored from 0 to 3+, based on the, staining intensity and percentage of positive cells were recorded.

Experiment [2] addresses phage-displayed peptide …. Kind of experiment: phage display biopanning on plate-coated antibody, PhD 12 library, three rounds.

B1: EGFR L858R (43B2E11E5B2) rabbit monoclonal antibody (antibody, V domains shown)
VH: QSVEESGGRLVTPGTPLTLTCTVSGFSLNTYGVSWVRQAPGKGLEWIGYIFTDGQTYYASWAKGRFTISKTSSTTVDLKITSPTTEDTATYFCASVDIWGPGTPVTVSS
VL: AQVLTQTPSPVSAAVGSTVTIKCQSSPSVYSNYLSWYQQKSGQPPKQLIYDASHLASGVPSRFSGSGSGTQFTLTISGVQCDDAATYYCLGSYDCSSVDCHAFGGGTEVVVKG
notes: Rabbit monoclonal from a hybridoma clone; also called L858R RmAb; L858R-specific antibody
As to B1, the binding result in experiment [1] was “no binding”. The Clone Frequency in experiment [2] was 1 of 9 clones.

(Values after US20120093837A1 (CELL SIGNALING TECHNOLOGY INC A, published 2012).)
